The record followed here is paper PMC12307460.

Several values for one entry are separate records, joined by “and”; a condition that tells them apart may be missing. Equal values may be shown once.

Experiment [1] has as its target spike (S) protein of pangolin merbecovirus MjHKU4r-CoV (MjHKU4r-CoV (pangolin HKU4r-CoV)).
Experiment [2] addresses MERS-CoV spike (S) protein of strain NRCE-HKU270 (clade C) (MERS-CoV strain NRCE-HKU270 (clade C)).
Experiment [3] has as its target MERS-CoV spike (S) protein of strain MERS-CoV/KOR/KNIH/002_05_2015 (clade B) (MERS-CoV strain MERS-CoV/KOR/KNIH/002_05_2015 (clade B)).
In experiment [4] the target is spike (S) protein of bat merbecovirus BtCoV/Ii/GD/2014-422 (BtCoV/Ii/GD/2014-422 (bat MERSr-CoV)).
The target of experiment [5] is MERS-CoV spike (S) protein of strain HCoV-EMC/2012 (clade A) (MERS-CoV strain HCoV-EMC/2012 (clade A)) (UniProt K9N5Q8).
UniProt K9N5Q8, sequence (K9N5Q8 18-1353): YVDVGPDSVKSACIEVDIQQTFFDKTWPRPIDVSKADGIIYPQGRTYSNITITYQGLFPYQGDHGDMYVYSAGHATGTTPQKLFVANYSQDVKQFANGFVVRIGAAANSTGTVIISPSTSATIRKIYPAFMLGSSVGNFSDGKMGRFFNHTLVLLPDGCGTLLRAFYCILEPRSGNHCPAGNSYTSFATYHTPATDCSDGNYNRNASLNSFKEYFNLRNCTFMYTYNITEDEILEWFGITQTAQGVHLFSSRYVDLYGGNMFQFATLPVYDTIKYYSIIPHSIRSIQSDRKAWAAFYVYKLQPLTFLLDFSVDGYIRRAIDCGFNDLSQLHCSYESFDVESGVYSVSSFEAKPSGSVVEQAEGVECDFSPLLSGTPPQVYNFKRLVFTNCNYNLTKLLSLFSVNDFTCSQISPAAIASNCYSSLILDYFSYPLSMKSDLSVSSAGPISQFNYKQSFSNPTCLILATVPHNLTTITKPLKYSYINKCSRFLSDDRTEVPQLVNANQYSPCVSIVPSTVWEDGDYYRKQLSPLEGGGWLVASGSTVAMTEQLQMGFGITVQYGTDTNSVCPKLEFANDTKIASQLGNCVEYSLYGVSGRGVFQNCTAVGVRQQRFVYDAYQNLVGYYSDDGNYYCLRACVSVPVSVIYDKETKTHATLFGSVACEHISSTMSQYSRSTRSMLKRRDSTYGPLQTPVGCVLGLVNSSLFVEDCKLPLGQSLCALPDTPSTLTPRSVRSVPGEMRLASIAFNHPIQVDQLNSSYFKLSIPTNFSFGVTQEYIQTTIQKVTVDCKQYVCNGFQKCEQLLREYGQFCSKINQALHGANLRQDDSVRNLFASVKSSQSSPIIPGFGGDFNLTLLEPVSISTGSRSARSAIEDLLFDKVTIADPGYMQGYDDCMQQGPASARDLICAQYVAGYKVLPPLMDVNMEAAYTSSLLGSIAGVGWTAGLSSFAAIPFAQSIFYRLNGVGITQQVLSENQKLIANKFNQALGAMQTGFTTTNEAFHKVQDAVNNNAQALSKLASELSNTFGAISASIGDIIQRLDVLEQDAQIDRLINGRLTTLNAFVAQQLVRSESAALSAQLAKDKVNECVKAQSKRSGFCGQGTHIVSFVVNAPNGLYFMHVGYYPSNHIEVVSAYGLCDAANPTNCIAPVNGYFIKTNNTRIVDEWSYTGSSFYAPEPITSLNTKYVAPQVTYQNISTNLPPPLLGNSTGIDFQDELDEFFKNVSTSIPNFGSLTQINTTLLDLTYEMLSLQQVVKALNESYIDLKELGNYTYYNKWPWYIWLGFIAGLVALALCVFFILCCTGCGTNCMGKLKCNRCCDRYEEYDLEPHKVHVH

On to D12 (antibody), for which the IC50 of neutralisation of S pseudovirus, average in experiment [1] is more than 5 µg/mL; in experiment [2], 0.085 µg/mL; in experiment [3] it was 0.19 µg/mL; in experiment [4] it was more than 5 µg/mL; in experiment [5] it was 0.068 µg/mL. For the same substance, the IC50 of neutralisation of S pseudovirus, one of three assays in experiment [1] is more than 5 µg/mL; in experiment [2], 0.095 µg/mL and 0.098 µg/mL and 0.061 µg/mL; in experiment [3], 0.25 µg/mL and 0.18 µg/mL and 0.14 µg/mL; in experiment [4] it was more than 5 µg/mL; in experiment [5] it was 0.087 µg/mL and 0.077 µg/mL and 0.041 µg/mL.
For G4 (antibody), the IC50 of neutralisation of S pseudovirus, average was more than 25 µg/mL in experiment [1]; 9.3 µg/mL in experiment [2]; 7.7 µg/mL in experiment [3]; 11 µg/mL in experiment [4]; 8.1 µg/mL in experiment [5]. The IC50 of neutralisation of S pseudovirus, one of three assays in experiment [1] is more than 25 µg/mL; in experiment [2], 5.2 µg/mL and 8.7 µg/mL and 14 µg/mL; in experiment [5] it was 5.9 µg/mL and 6.4 µg/mL and 12 µg/mL.
As for CDC2-C2 (antibody), the IC50 of neutralisation of S pseudovirus, average was more than 5 µg/mL in experiment [1]; 0.12 µg/mL in experiment [2]; 0.17 µg/mL in experiment [3]; more than 5 µg/mL in experiment [4]; 0.041 µg/mL in experiment [5]. Also, the IC50 of neutralisation of S pseudovirus, one of three assays in experiment [1] and in experiment [4] was more than 5 µg/mL each time.
With m336 (antibody), the IC50 of neutralisation of S pseudovirus, average in experiment [1] was more than 5 µg/mL; in experiment [2], 0.36 µg/mL; in experiment [3] it was 0.85 µg/mL; in experiment [4], more than 5 µg/mL; in experiment [5], 0.14 µg/mL. Further, the IC50 of neutralisation of S pseudovirus, one of three assays in experiment [1] and in experiment [4] was more than 5 µg/mL throughout.
In the case of JC57-14 (antibody), the IC50 of neutralisation of S pseudovirus, average was more than 5 µg/mL in experiment [1]; 0.055 µg/mL in experiment [2]; 0.064 µg/mL in experiment [3]; more than 5 µg/mL in experiment [4]; 0.037 µg/mL in experiment [5]. Moreover, the IC50 of neutralisation of S pseudovirus, one of three assays was more than 5 µg/mL in experiment [1]; 0.066 µg/mL and 0.059 µg/mL and 0.039 µg/mL in experiment [2]; 0.09 µg/mL and 0.043 µg/mL and 0.06 µg/mL in experiment [3]; more than 5 µg/mL in experiment [4]; 0.039 µg/mL and 0.023 µg/mL and 0.047 µg/mL in experiment [5].
Consider MCA1 (antibody), for which the IC50 of neutralisation of S pseudovirus, average in experiment [1] was more than 5 µg/mL; in experiment [2], 0.067 µg/mL; in experiment [3], 0.096 µg/mL; in experiment [4], more than 5 µg/mL; in experiment [5], 0.059 µg/mL. For the same substance, the IC50 of neutralisation of S pseudovirus, one of three assays was more than 5 µg/mL in experiment [1]; 0.084 µg/mL and 0.047 µg/mL and 0.071 µg/mL in experiment [2]; 0.082 µg/mL and 0.06 µg/mL and 0.15 µg/mL in experiment [3]; more than 5 µg/mL in experiment [4].
For the substance 7D10 (antibody), the IC50 of neutralisation of S pseudovirus, average in experiment [1] is more than 50 µg/mL; in experiment [2], more than 50 µg/mL; in experiment [3], 7.5 µg/mL; in experiment [4], 23 µg/mL; in experiment [5], 50 µg/mL. Besides, the IC50 of neutralisation of S pseudovirus, one of three assays in experiment [1] is more than 50 µg/mL; in experiment [2] it was more than 50 µg/mL; in experiment [5], 50 µg/mL.
